# Data: PMC7105484, “Crystal structures of REF6 and its complex with DNA reveal diverse recognition mechanisms” (Cell Discovery, 2020)
# Numbering of substitutions follows the chain as printed.
# T1: REF6 W1309A (Arabidopsis thaliana, UniProt Q9STM3 1223-1360, W1309A)
# T1 sequence: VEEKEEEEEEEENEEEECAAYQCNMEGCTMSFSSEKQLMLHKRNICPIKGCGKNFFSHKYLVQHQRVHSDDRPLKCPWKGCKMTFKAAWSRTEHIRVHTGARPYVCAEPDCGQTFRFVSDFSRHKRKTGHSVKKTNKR
# T2: REF6 W1311A (Arabidopsis thaliana, UniProt Q9STM3 1223-1360, W1311A)
# T2 sequence: T1 sequence with A87W, W89A
# T3: REF6 S1341W (Arabidopsis thaliana, UniProt Q9STM3 1223-1360, S1341W)
# T3 sequence: T1 sequence with A87W, S119W
# B1: NAC004 m5 (dsDNA)
# DNA 1: CTTTCTCTGTTTTGTC
# DNA 2: GGACAAAACAGAGAAA
# Legend:
# Conditions in all cases: protein: recombinant; tags: His6-MBP or GST, TEV-cleavable; label: FAM in MST; none in crystal and EMSA; 5' overhang 1 nt on both strands, 15 bp
# [1] = target: T1, REF6 W1309A; assay: MST; MST: 20 mM HEPES pH 7.3, 150 mM NaCl, 0.2 mM TCEP, 0.5% CA-630, 25 C; EMSA: 30 uM protein, 10 uM dsDNA, 20 mM Tris pH 8.0, 100 mM NaCl, 2.5 mM MgCl2, 0.1% CA-630, 10% glycerol, 1 uM ZnSO4, 1 mM DTT, 4 C
# [2] = target: T2, REF6 W1311A; assay: MST and EMSA; marked abrogation; MST: 20 mM HEPES pH 7.3, 150 mM NaCl, 0.2 mM TCEP, 0.5% CA-630, 25 C; EMSA: 30 uM protein, 10 uM dsDNA, 20 mM Tris pH 8.0, 100 mM NaCl, 2.5 mM MgCl2, 0.1% CA-630, 10% glycerol, 1 uM ZnSO4, 1 mM DTT, 4 C
# [3] = target: T3, REF6 S1341W; assay: as above
binder,measurement,setting,value
B1,Kd,[1],58.5 µM
same,binding result,[2],no binding
same,binding result,[3],no binding
